This passage reports percent positive cells results from US20220184120A1.

In this experiment the target is full-length MUC1 expressed on HCT-116 cells (cleavage resistant single cell clone) (Homo sapiens (Human)) (UniProt P15941). Description: flow cytometry, HCT-MUC1-41TR cells (FIG. 36D). For orientation: A flow cytometer gives signals particle by particle.

“VU4H5 commercially available mouse monoclonal anti-MUC1 tandem repeat antibody” displayed a percent positive cells of 95%.
